{"source": "the DeepSol protein solubility set"}
{"experiment": "soluble on expression in E. coli; label from the status in PepcDB or PDB records"}
{"sequence": "MGHHHHHHSHMQSCESSGDSADDPLSRGLRRRGQPRVVVIGAGLAGLAAAKALLEQGFTDVTVLEASSHIGGRVQSVKLGHATFELGATWIHGSHGNPIYHLAEANGLLEETTDGERSVGRISLYSKNGVACYLTNHGRRIPKDVVEEFSDLYNEVYNLTQEFFRHDKPVNAESQNSVGVFTREEVRNRIRNDPDDPEATKRLKLAMIQQYLKVESCESSSHSMDEVSLSAFGEWTEIPGAHHIIPSGFMRVVELLAEGIPAHVIQLGKPVRCIHWDQASARPRGPEIEPRGEGDHNHDTGEGGQGGEEPRGGRWDEDEQWSVVVECEDCELIPADHVIVTVSLGVLKRQYTSFFRPGLPTEKVAAIHRLGIGTTDKIFLEFEEPFWGPECNSLQFVWEDEAESHTLTYPPELWYRKICGFDVLYPPERYGHVLSGWICGEEALVMEKCDDEAVAEICTEMLRQFTGNPNIPKPRRILRSAWGSNPYFRGSYSYTQVGSSGADVEKLAKPLPYTESSKTAPMQVLFSGEATHRKYYSTTHGALLSGQREAARLIEMYRDLFQQGT", "soluble on expression in E. coli": "soluble"}
{"sequence": "MVLRKLSTYRQKRDFEKTPEPSGEAAVASSKQRRFVIQKHDASRLHYDFRLEFDGVFKSWAVTKGPSLDPHDKRLAVEVEDHPLDYGDFEGTIPEGQYGGGTVMLWDRGTWEADDPERGFKKGDLKFTLHGEKLHGSWVLVRMRNDRDGGKRTNWLLIKHRDEYAREGEDILAEDKSVASGRAMAQILEHHHHHH", "soluble on expression in E. coli": "soluble"}
{"sequence": "GDSSSSGNSFVGLRVVAKWSSNGYFYSGKITRDVGAGKYKLLFDDGYECDVLGKDILLCDPIPLDTEVTALSEDEYFSAGVVKGHRKESGELYYSIEKEGQRKWYKRMAVILSLEQGNRLREQYGLGPYEAVTPLTKAADISLDNLVEGKRKRRSN", "soluble on expression in E. coli": "soluble"}
{"sequence": "MGSDKIHHHHHHMADNVKANKMNSQADDDIGFGIYTDIADLPMTGCPSYIEEGIGGVCESGTATIVVFDVPFQIVPNVVITLMPWQLVFIKEISEDFRITFFKISKDMFSETLSTLWRPASGFLLYMRKHIVSIPDGELIGRFLAYCNLLVYRMKHTPQNCRQESIMQLLRVYFWDVYTVYINDPQAEKSLKFTRKDEYVYQFVRLIIEDHSPDKDVAYFAQKLGISPKRLTNLIRSISGQSAREWIVYYTILEIKSLLRESSLDIKSIAARVNFPDQTTLSRYFRHYTGVTPSQYRKNIYF", "soluble on expression in E. coli": "not soluble"}
{"sequence": "MAGETDLQKILRESNDQFTAQMFSEVVKANPGQNVVLSAFSVLPPLGQLALASVGESHDELLRALALPNDNVTKDVFADLNRGVRAVKGVDLKMASKIYVAKGLELNDDFAAVSRDVFGSEVQNVDFVKSVEAAGAINKWVEDQTNNRIKNLVDPDALDETTRSVLVNAIYFKGSWKDKFVKERTMDRDFHVSKDKTIKVPTMIGKKDVRYADVPELDAKMIEMSYEGDQASMIIILPNQVDGITALEQKLKDPKALSRAEERLYNTEVEITLPKFKIETTTDLKEVLSNMNIKKLFTPGAARLENLLKTKESLTVDAAIQKAFIEVNEEGAEAAAANAFGIVPKSLILYPEVHIDRPFYFELKIDGIPMFNGKVIEP", "soluble on expression in E. coli": "soluble"}
{"sequence": "YCEFLNNELRAHASDLLPTAPVPTMMLDRAWDEATLHNITQLIYDVRKDDALFRREISKPGAFDLMRKNYWDRREYSAVTLVGNETCNLAPLAELGFQIEVSQ", "soluble on expression in E. coli": "not soluble"}
{"sequence": "MSLSMITLWGRNNSTNVKKVLLTLEELELPYEQILAGREFGINHDADFLAMNPNGLVPLLRDDESDLILWESNAIVRYLAAQYGQKRLWIDSPARRAEAEKWMDWANQTLSNAHRGILMGLVRTPPEERDQAAIDASCKECDALFALLDAELAKVKWFSGDEFGVGDIAIAPFIYNLFNVGLTWTPRPNLQRWYQQLTERPAVRKVVMIPVSEGHHHHHH", "soluble on expression in E. coli": "soluble"}
{"sequence": "MGSDKIHHHHHHMKPRACVVVYPGSNCDRDAYHALEINGFEPSYVGLDDKLDDYELIILPGGFSYGDYLRPGAVAAREKIAFEIAKAAERGKLIMGICNGFQILIEMGLLKGALLQNSSGKFICKWVDLIVENNDTPFTNAFEKGEKIRIPIAHGFGRYVKIDDVNVVLRYVKDVNGSDERIAGVLNESGNVFGLMPHPERAVEELIGGEDGKKVFQSILNYLKR", "soluble on expression in E. coli": "not soluble"}
{"sequence": "MQANGVWSLQPLADMSAAEFRDWQVLLENRTGVVLNEQRRTFLQASLTARMRELGIGDYHSYYRQVTDGPRGAVEWATLLDRLTVQETRFFRHPPSFELLERYLGERLRREGMPRPWALWSVGCSSGEEPYSLAMCAAQVLRGQEREDFFGVTGTDISLHALQRARQANYPARKLEQLEAGLVERYCERQADGSFSVKTILTERVCCARLNVLDLAKAPWSGMDVIFCQNLLIYFRRWRRREILNRLAERLAPGGLLVIGVGEVVDWSHPELEPVADERVLAFTR", "soluble on expression in E. coli": "not soluble"}
{"sequence": "MSRRGGAPSRPPRPPIRYVATAPKPSRVVTRSRPEGVRWLRADGTPNWSQRVRRLPGDAKELASRPAVSVHKSAPILSAAEKIASHRVRGLVVIKGSGDAVLEGILLATDLVNYLGGGDYFQIVENRHRDSIYSALRKEVVATIMNRHPIAVSVSDDLDTILRIMVGEGIGFLPVLYDDGTLHGVITERNILGRIADIP", "soluble on expression in E. coli": "not soluble"}
{"sequence": "MSLADISVIQSLPLSGSQAVTGRALNAGARLYFDWLNLNGGINGETIRLVARDDEQKIEQTVRNVRDMARVDNPVALLTVVGTANVEALMREGVLAEARLPLVGPATGASSMTTDPLVFPIKASYQQEIDKMITALVTIGVTRIGVLYQEDALGKEAITGVERTLKAHALAITAMASYPRNTANVGPAVDKLLAADVQAIFLGATAEPAAQFVRQYRARGGEAQLLGLSSIDPGILQKVAGLDAVRGYSLALVMPNPGKSVNPVIREFNRARAAVGAKDVDLSFRAVEGFVAAKVLAEAIRRAGPKPTREQVRHALTELRDYDVGGGFTVDFTDRSRPGSHYIELGVVGPNGLVIQEGHHHHHH", "soluble on expression in E. coli": "soluble"}
{"sequence": "MKYCKFCCKAVTGVKLIHVPKCAIKRKLWEQSLGCSLGENSQICDTHFNDSQWKAAPAKGQTFKRRRLNADAVPSKV", "soluble on expression in E. coli": "soluble"}
{"sequence": "MGSDKIHHHHHHMTEKADGKARIVRLGQILRIFMEKEKVSSTWLSRQFQTTPRTIQRDLLLLKKSGFPLHEIRKGIYQLHKDLVRNLEVFDDTELALVVALKNIVGQLGRPFQTAAGNILDHLYDCVKSMPVFVKIDDAVPLDSALLNRILQAILKKRTVSFQYAAPHGSHAVNLEPYRVVYFSGFWYLIGNEPSTGILKRYALDKIENFKSSRQCFTAIPSDLDDVLRQSANIWFTEDANIEITVHIDARVSDYFKRRKMYPTQEIKEERPDGSLVVTFRVGNYEAIRDILKSWIPHFVILEPEDFRVSMLNDIKGWVEKQEQQSCLDNISF", "soluble on expression in E. coli": "not soluble"}
{"sequence": "MGSDKIHHHHHHMRSHGGDVYKVSPNYDRITDMSSNVNPFLDLGKYSLYPEISYTDIEEKLRVYTKSTNMGIVIGPGLTHLIYKYFEFYQVKKPIIAMPNFSEYKGIAEDRHLRFSAIPSYIIEKDPLILKNFDHDALFITSPSNPFGELFPESTLETVFEIEEKRGRRVFLDGAFMDFVPNYAESIVQSSRSYFNVTIGRSLTKILAIPSLRAGYLIMERHEADLFRKAMEPWSICQPAIDFIRSIDINEVAKNSVALVNGEREYLISELKARGIKVIGNPSANYIVISMPRTDEFYNFMLSKGILVRLLDDYDYVGRCLVRLAIKTRSQNNAFLNALDNFMSSSE", "soluble on expression in E. coli": "not soluble"}
{"sequence": "NQVEKSLISSYEQSLNQRIDNLSYYIEQEYKSDNDSTVIKDDVSRILNDFTKSDEVREISFVDKSYEVVGSSKPYGEEVAGKQTTDLIFKRIFSTKQSYLRKYYDPKSKIRVLISAKPVMTENQEVVGAIYVVASMEDVFNQMKTINT", "soluble on expression in E. coli": "not soluble"}
{"sequence": "MGSDKIHHHHHHMLDKKTNIATDDPKAWLAQHGINEVECLVPDMNGVLRGKALPTAKFLKALEDRALYLPSSAFLVSIDGRYSGSIDEGFAYSDPDMRMVPDVSTLCLAPGAGAGKAYVFADAFHMDGRPWMASPRHVLRAVLDLYRQRGWRAVVAPEVEFYLTAPNPDPDRPLTAPVGANGRAEGVQHPYDMVALEEFEPVIRRVYDYAAAAGLPLDTLIHESGTAQLEINLLHGDALPLADQVLLFKRLTRQAAQQCGMHATFMAKPIAAQAGSSMHLHMSVVDEAGNALFASDDDADTEMFGHFIGGLQTYVPEIMPLFAPNVNSFRRIRPNHSAPANIEWSHDNRSCGLRVPAGGRSARRVENRLPGADSNPYLAIAGSLLAGYLGVQQKLARSAEASGNAYKIKSTLPKTMEEALDRFTACEPVRKLLGEDFSQTYLRVKSVELDLFQSVVTSWERDHLLLKV", "soluble on expression in E. coli": "not soluble"}
{"sequence": "MSLLANLPPLVTVFGGSGFVGRHVVRMLAKRGYRIRVAVRRPDLAGFLQPLGNVGQISFAQANLRYRDSIIKAVEDADHVVNCVGILAESGRNTFDAVQEFGAKAIAEAARDTGATLTHISAIGADANSQTGYGRTKGRAEAAIHSVLPGAVILRPSIIFGPEDDFFNKFAKMARNLPFLPLIGGGKTKFQPVYVEDVAEAVARSVDGKLKPGAIYELGGPDVMTFRDCLEAVLAATYRERSFVNLPFGVASMIGKLASLVPLITPPLTPDQVTMLKKDNVVSAEAEKKGLTLEGIGITPVRVASVLPSYMVQYRQHGQFSNAGKAAEGHHHHHH", "soluble on expression in E. coli": "soluble"}
{"sequence": "MDWTRRLRLQHLQLLVSLMETGNLSGTARAAHTTQPGLSKWLKELEEDVGAPLFERHARGLRPTPYGMTLFNHAQRVLTEMERARQNLEAMRSGSGSRVLLGTSPASAPSLVPRALRAFLGRYPGAQVELLEGTMNGLLERLEKRQLDVVVGRLDNYAPRASLRCEVLYSEAIVVMARPGHPLAQAAALDWEDVRRYDWIVWPPGSPIRSKLDMALTQGGRQPPAYRLESSSMLANIELLRGSDMLSIGSARVVEHLAGLGLVARLALEIPGEGAVGMCWRDEPHRDRASEDLLACLREGAAAE", "soluble on expression in E. coli": "not soluble"}
{"sequence": "MGSDKIHHHHHHMSAVIGYRHGKAGERGIILCARQFQNSLNESSLEEIKRAIESYPFLQDYYEIGDKYIKSKDGRIVYVFAGLDRNIASIKSMGRVFLCWVDEAEPVTETAWQTLIPTLREEGNDWNAELWVTWNPCRENAPVEKRFRNVNNPHIKGAEITWRDNPQFPEKLNRDRKADLEQRPEHYNHIWEGEYLQTVEGAYYQKALLEASREGRITTVPRDPLMQIRIFWDIGGTGAKADATALWVAQFVGREIRVLDYYEAQGQPLSEHVGWVFQRGYDKALMVLPHDGATKDRVYNVSFESALQQAGFQTKVIPNQGVGAVKMRIEAVRRLFPAIWFNRETTHAGRKALAWYHEKRDEQRNIGLGAEHDWASHGADAFGLMCVAYEQPNMRPKKNTYRSSHHSQTSWMAF", "soluble on expression in E. coli": "not soluble"}
{"sequence": "TGSIGSAARKILLAKTDVQLTLYSRRADRLKLIVDRETAVAGSVTDDDQLDQAIKGQDFVFVALNGDMDSFAAHIISAMERNGIQRLIFITTMGIYQEIPAWLGDSPEPYHNPILKSFRQAADRIEQSDLNYTIIRPGWYNN", "soluble on expression in E. coli": "not soluble"}
{"sequence": "MKIQLDINGTEIQKGVWVGSGAIIEPGAILNPPCVIGDNCRIESGAVIDSLSVIGNNNVIERDSSVKRSVIWDGNYIEYGSKIRGAILCSKTNLKRYVHIFENAIVGDNCLINERVVIKPNIKIWPQKTVEPFAIVDRNIIWGSKLEHHHHHH", "soluble on expression in E. coli": "not soluble"}
{"sequence": "MLDLFADAEPWQEPLAAGAVILRRFAFNAAEQLIRDINDVASQSPFRQMVAPGGYTMSVAMTNCGHLGWTTHRQGYLYSPIDPQTNKPWPAMPQSFHDLCQRAATAAGYPDFQPDACLINRYAPGAKLSLHQDKDEPDLRAPIVSVSLGLPAIFQFGGLKRNDPLKRLLLEHGDVVVWGGESRLFYHGIQPLKAGFHPLTTDCRYNLTFRQAGKKE", "soluble on expression in E. coli": "not soluble"}
